Reference: article PMC3927877 (Nature Communications, 2013)

B2: STIM1 CC1_([TM-distal])-CC2 I383R (domain or fragment, human, UniProt Q13586 312-387, looked up)
chain: SRQKYAEEELEQVREALRKAEKELESHSSWYAPEALQKWLQLTHEVEVQYYNIKKQNAEKQLLVAKEGAEKRKKKR
B3: STIM1 CC1_([TM-distal])-CC2 E318Q/E319Q/E320Q/E322Q (domain or fragment, human, UniProt Q13586 312-387, looked up)
chain: SRQKYAQQQLQQVREALRKAEKELESHSSWYAPEALQKWLQLTHEVEVQYYNIKKQNAEKQLLVAKEGAEKIKKKR
B4: STIM1 CC1_([TM-distal])-CC2 A380R (domain or fragment, human, UniProt Q13586 312-387, looked up)
chain: SRQKYAEEELEQVREALRKAEKELESHSSWYAPEALQKWLQLTHEVEVQYYNIKKQNAEKQLLVAKEGREKIKKKR

Key:
[1] = biological target: B4; experiment: pull-down
[2] = biological target: B3; experiment: pull-down
[3] = biological target: B2; experiment: pull-down
[4] = biological target: STIM1 CC1_([TM-distal])-CC2 V324P (human, UniProt Q13586 312-387, V324P); experiment: pull-down
STIM1 CC1_([TM-distal])-CC2 V324P, sequence (Q13586 312-387 V324P): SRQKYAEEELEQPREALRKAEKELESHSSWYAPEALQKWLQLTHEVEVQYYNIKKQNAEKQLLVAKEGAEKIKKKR

SEC-MALS = biological target: the molecule itself; experiment: SEC-MALS
[5] = biological target: STIM1 CC1_([TM-distal])-CC2 (residues 312-387) (human, UniProt Q13586 312-387); experiment: NMR titration

B1: MBP-Orai1 C_(272–292) (domain or fragment, human, UniProt Q96D31 272-292, looked up)
chain: ELNELAEFARLQDQLDHRGDH
binding result [1]: binds | binding result [2]: binds | binding result [3]: binds | binding result [4]: binds

B2
binding result (SEC-MALS): binds

B3
binding result (SEC-MALS): binds

B4
binding result (SEC-MALS): binds

B5: Orai1 C_(272–292) (peptide, UniProt Q96D31 272-292, looked up)
chain: ELNELAEFARLQDQLDHRGDH
Kd [5]: 100 to 600 µM

B6: STIM1 CC1_([TM-distal])-CC2 K382E/K384E/K385E/K386E (domain or fragment, human, UniProt Q13586 312-387, looked up)
chain: SRQKYAEEELEQVREALRKAEKELESHSSWYAPEALQKWLQLTHEVEVQYYNIKKQNAEKQLLVAKEGAEEIEEER
binding result (SEC-MALS): binds
